From patent US20260242487A1 (HANGZHOU ZHONGMEIHUADONG PHARMACEUTICAL, published 2026) come the findings set out here.

The target in test [1] is T1, hFGFR2b-Fc (Kactus, Catalog #FGR-HM2BB) (human, UniProt P21802-3 22-378, biotinylated in Example 9 (printed as biotin-hFGFR2b-Fc; site not stated)).
T1 construct: Bought reagent; also called biotin-hFGFR2b-Fc; not shown: Fc part
Put plainly: competition ELISA: inhibition of FGF7-his binding to coated hFGFR2b-Fc. Here is the method: (§1) Inhibition of binding of FGF7 and FGF10 to FGFR2b by anti-FGFR2b antibodies was measured by ELISA assay. Each step of each assay was performed by room temperature incubation with the appropriate reagent for 1 hour, except the initial plate coating step was done overnight at 4° C. Between each step, plates were washed 3 times in PBS containing 0.05% Tween 20.
(§2) To determine the abilities of the anti-FGFR2b mAbs to block ligand binding to FGFR2b, plates were coated with 1 μg/ml hFGFR2b-Fc (Kactus, Catalog #FGR-HM2BB), and followed by blocking with 2% BSA. The plates were next incubated with human FGF7-his (20 nM, Sino Biological, Catalog #10210-H07E) or biotin-FGF10 (5 nM, Kactus, Catalog #FGF-HE010B) in the presence of serial diluted (1:5) anti-FGFR2b mAbs, and the bound ligands were detected with HRP-anti 6×His tag (Abcam, Catalog #ab1187) or Streptavidin-Protein HRP (Thermo, Catalog #21126) and TMB substrate (Cell Signaling, Catalog #7004P6).

Test [2] has as its target T1, hFGFR2b-Fc (Kactus, Catalog #FGR-HM2BB). Put plainly: competition ELISA: inhibition of biotin-FGF10 binding to coated hFGFR2b-Fc. As to the method: as §1, §2
The target of the next test is T2, FGFR2b-his (human, UniProt P21802-3 22-378).
T2 construct: also called human FGFR2b antigen; human FGFR2b (FGFR2b-his); not shown: his tag
Briefly: surface plasmon resonance (Octet, Sartorius): antibody immobilized by amine coupling, FGFR2b-his flowed over. Here is the method:
The binding affinities of anti-FGFR2b mAbs for human FGFR2b (FGFR2b-his) was measured using surface plasmon resonance (Octet, Sartorius). Anti-FGFR2b mAbs were immobilized on a dextran chip using the amine coupling kit and 100 mM ethylenediamine in 100 mM sodium borate, pH 8.0, was used as the blocking reagent. FGFR2b-his proteins diluted in HEPES-buffered saline with 0.05% surfactant P20 running buffer were flowed over the immobilized antibody.

The target in test [3] is T3, human FGFR2b expressed on cells (hFGFR2b-expressing CHOK1 cells); Ba/F3 cells expressing full-length human … (human, UniProt P21802-3 22-822).
T3 construct: whole, on cells; also called FGFR2IIIb; CHOK1-FGFR2IIIb transfectants
Briefly: flow cytometry on CHOK1 cells expressing hFGFR2b, detection with APC anti-human IgG Fc. Here is the method:
Appropriate cells (1×10⁵) were washed twice in FACS buffer (PBS+2% BSA), resuspended in 100 μl of FACS buffer containing serial diluted (1:5) anti-FGFR2b mAbs, and incubated at 4° C. for 1 hour. Cells were then washed twice in FACS buffer and the bound antibodies were detected by incubation with APC anti-human IgG Fc (Biolegend, Catalog #410712) for 1 hour at 4° C. After washing twice in FACS buffer, cells were analyzed on a Cytoflex (Beckmann Coulter). Aprutumab was also tested as a positive control which can bind to both FGFR2b and FGFR2c.

T2 sequence (P21802 other isoform, or with tags, fused parts or gaps): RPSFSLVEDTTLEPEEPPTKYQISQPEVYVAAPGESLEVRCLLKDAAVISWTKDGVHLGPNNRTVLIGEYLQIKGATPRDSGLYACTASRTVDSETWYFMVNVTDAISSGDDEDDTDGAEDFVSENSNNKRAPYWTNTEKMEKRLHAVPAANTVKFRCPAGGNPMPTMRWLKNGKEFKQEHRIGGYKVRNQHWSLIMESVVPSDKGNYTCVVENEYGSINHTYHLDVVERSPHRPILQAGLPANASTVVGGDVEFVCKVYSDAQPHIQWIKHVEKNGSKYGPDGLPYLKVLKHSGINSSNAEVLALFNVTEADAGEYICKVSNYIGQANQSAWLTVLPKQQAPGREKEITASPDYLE
T3 sequence (P21802 other isoform, or with tags, fused parts or gaps): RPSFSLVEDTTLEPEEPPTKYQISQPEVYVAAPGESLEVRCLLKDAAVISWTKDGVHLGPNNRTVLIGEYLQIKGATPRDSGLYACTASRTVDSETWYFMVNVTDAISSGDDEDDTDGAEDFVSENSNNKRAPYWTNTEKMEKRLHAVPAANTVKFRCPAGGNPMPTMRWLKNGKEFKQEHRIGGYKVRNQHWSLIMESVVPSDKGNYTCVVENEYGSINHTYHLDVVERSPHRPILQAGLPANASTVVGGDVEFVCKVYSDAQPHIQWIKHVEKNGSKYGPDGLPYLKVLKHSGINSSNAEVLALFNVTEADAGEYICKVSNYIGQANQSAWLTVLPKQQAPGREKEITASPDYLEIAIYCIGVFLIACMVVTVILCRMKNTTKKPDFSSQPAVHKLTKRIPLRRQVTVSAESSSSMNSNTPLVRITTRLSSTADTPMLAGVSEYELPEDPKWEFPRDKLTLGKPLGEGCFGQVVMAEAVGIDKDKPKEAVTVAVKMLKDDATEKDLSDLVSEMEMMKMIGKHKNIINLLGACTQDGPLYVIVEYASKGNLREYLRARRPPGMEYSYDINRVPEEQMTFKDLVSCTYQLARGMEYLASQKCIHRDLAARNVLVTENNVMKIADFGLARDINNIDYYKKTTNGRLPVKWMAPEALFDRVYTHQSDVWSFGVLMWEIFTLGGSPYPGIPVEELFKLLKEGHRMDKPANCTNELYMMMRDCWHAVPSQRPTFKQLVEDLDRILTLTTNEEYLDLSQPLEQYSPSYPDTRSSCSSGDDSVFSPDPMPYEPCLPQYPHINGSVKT

B1: HC18 (antibody, human IgG1, kappa, V domains shown)
VH: EVQLQQSGTVLARPGASVKMSCKTSGYTFTSYWMHWVKQRPGQGLEWIGSIYPENSDTSYNQKFKGKAKLTAVTSASTAYMDLSSLTNEDSAVYYCSIYHGYDGDYWGQGTTLTVSS
VL: QIVLTQSPAIMSASPGEKVTITCSASSSVSYMYWFQQKPGTSPKLWIYSTSNLASGVPARFSGSGSGTSYSLTISRMEAEDAATYYCQQRSSYPYTFGGGTKLEIKR
notes: also called mAb HC18; the antibody of the present disclosure
In test [1], B1 yielded an IC50 of 3.82 nM. The IC50 in test [2] amounted to 4.99 nM. Besides, in the test with FGFR2b-his, the Kd was determined as 26.7 nM, the koff stood at 0.005 s⁻¹ and the association rate constant (kon) was determined as 187000 M⁻¹ s⁻¹. Further, the “EC50 (read off the curve)” value in test [3] was about 0.4 nM.
